Results from patent US20040102382A1, “Targeting peptides” (priority 2002, published 2004).
No end group written: not given here.

Legend:
WiDr cells = assay: Phage binding specificity test (output/input ratio); design: species or system human; conditions: fifth pool, PhD-C7C library
P815MUC1 cells = assay: Competition of phage binding by synthetic peptides; design: species or system mouse; conditions: for inhibition of WPY phage binding: increasing amounts of peptide (WPY 0.1, 10 and 500 μM)
Description: Synthetic peptides corresponding to the WPY and LPQ sequences of the previously selected phages (second and fourth sequences of Table 3) were synthetized (Neosystem, strasbourg, France). Increasing amounts of WPY peptide (0.1, 10 and 500 μM) and LPQ peptide (0.1, 10 and 1000 μM) or control peptides GHL and SGR (a non-selected phage from the PhD-C7C library) were diluted in a total volume of 1 ml of PBS-BSA1 % with 5.10^6 P815MUC1 cells and incubated for 1 hour at 4° C. under slight agitation. 1.10^10 WPY or LPQ phages in 200 μl of PBS-1% BSA were added and incubated with the cells and the peptide for two hours at 4° C. under slight agitation. Cells were then washed and bound phages eluted and titered following the same protocol as for the selections.

[1] = molecular target: coxsackievirus-adenovirus receptor (CAR) on cells (UniProt P78310); assay: cell-based or functional assay
[2] = molecular target: MUC1 as expressed on P815MUC1 cells (P815 mouse mastocytoma cells transfected with MUC1 and Neomycin expression cassettes) (UniProt P15941); assay: phage titration on P815MUC1 cells (1.5e11 phages, 1e7 cells; FIG. 4); the same is said of MUC1-negative P815pAG60 cells
[3] = molecular target: MUC1 as expressed on P815MUC1 cells (P815 mouse mastocytoma cells transfected with MUC1 and Neomycin expression cassettes) (UniProt P15941); assay: phage titration on MUC1-transfected against control-transfected P815 cells (FIG. 4)
[4] = increasing amounts of peptide (LPQ 0.1, 10 and 1000 μM), 1.10^10 phages, 4° C.

UniProt P78310, sequence (P78310 20-365 limits assumed): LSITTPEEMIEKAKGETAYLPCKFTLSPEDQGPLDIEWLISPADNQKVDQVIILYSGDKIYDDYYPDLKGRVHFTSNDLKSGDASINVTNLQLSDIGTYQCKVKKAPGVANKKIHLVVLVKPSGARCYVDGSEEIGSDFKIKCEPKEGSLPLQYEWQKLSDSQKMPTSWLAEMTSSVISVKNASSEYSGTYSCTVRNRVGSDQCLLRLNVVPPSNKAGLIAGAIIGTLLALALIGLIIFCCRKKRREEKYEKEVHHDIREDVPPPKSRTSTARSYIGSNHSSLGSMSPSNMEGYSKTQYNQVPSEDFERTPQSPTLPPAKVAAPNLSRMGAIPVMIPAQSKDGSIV

Row | Molecule | fold higher affinity than the control phages (M13, GHL) [2] | fold binding to P815MUC1 cells over P815pAG60 cells [3] | further results
1 | CLPSTRQTC [CLPSTRWTC] |  |  | binding to WiDr cells compared to the subtractor 293 cells (WiDr cells): specific binding
2 | CWPYPSHFC |  |  | inhibition of LPQ phage binding (P815MUC1 cells; 500 μM concentration of non-corresponding peptide): did not significatively inhibit; inhibition of WPY phage binding (P815MUC1 cells; 1.10^10 phages, 4° C.): inhibit in a dose-dependant manner
3 | LPQRAFWVPPIV |  |  | inhibition of LPQ phage binding (P815MUC1 cells; [4]): inhibit in a dose-dependant manner
4 | Adenovirus type 5 wild-type fiber protein, as carried by the Ad-fbwt virus (from UniProt P11818 1-581) |  |  | inhibition of infection of 293 and HeLa cells (β-galactosidase activity, % of control) by soluble knob at 10 µg/ml [1]: > 90%
5 | GHLIPLRQPSHQ [GHL used as control peptide and non-selected PhD12 control phage, reference compound] |  |  | inhibition of LPQ phage binding (P815MUC1 cells; [4]): did not significatively inhibit; inhibition of WPY phage binding (P815MUC1 cells; 1.10^10 phages, 4° C.): did not significatively inhibit
6 | WPTSPWSSRDWS (not fully specified (C-terminus)) | > 100 fold | > 3 times | 
7 | WPVRPWMPGPVV (not fully specified (C-terminus)) [WPV phage (M13 phage of the PhD-12 library displaying …)] | > 100 fold | > 3 times | 
8 | LPQRAFWVPPIV (not fully specified (C-terminus)) [LPQ phage (M13 phage of the PhD-12 library displaying …)] | > 100 fold | > 3 times | 
9 | MPLPQPSHLPLL (not fully specified (C-terminus)) [MPL phage (M13 phage of the PhD-12 library displaying …)] | > 100 fold | > 3 times | 
10 | WPTSPWLEREPA (not fully specified (C-terminus)) | > 100 fold | > 3 times | 
